“Also recorded” adds a separate entry of the source.
T1: human CD39, membrane-bound, as expressed on cells (human, UniProt P49961 1-510)
T1 construct: On OAW42 cells, on monocytes and B cells of patients, in patients' tumour tissue, and in tissues of human CD39 knock-in mice; also called mCD39
T1 sequence: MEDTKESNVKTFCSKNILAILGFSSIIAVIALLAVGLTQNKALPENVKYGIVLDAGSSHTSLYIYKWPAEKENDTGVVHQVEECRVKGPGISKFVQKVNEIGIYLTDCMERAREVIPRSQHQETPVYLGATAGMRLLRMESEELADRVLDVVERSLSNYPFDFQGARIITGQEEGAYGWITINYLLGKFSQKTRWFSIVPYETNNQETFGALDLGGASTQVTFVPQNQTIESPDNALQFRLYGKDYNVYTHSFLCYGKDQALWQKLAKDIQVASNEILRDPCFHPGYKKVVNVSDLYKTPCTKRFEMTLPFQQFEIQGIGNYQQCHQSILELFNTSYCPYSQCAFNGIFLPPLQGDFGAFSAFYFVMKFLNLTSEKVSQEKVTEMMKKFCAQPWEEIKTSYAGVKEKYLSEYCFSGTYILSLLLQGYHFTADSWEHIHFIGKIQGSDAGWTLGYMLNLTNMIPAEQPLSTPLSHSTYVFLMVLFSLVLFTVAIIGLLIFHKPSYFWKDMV

T2: CD39 enzymatic activity (Homo sapiens, UniProt P49961)
T2 construct: genetically modified to express human CD39 in place of its murine counterpart mouse CD39; from tissue; host or cells: tissues (MCA205 tumours) of huCD39KI mice treated with moIPH5201
T2 sequence (P49961 1-510): T1 sequence

B1: IPH5201 (humanized anti-CD39 antibody having the respective heavy and light chain amino acid sequences of SEQ ID NOS: 10 and 11) (antibody, human IgG1, kappa, V domains shown)
VH: QVQLVQSGAEVKKPGASVKVSCKASGYTFTDYNMHWVRQAPGQRLEWIGYIVPLNGGSTFNQKFKGRATITVDTSARTAYMELSSLRSEDTAVYYCARGGTRFAYWGQGTLVTVSS
VL: DIVMTQSPDSLAVSLGERATINCRASESVDNFGVSFMYWFQQKPGQPPKLLIYGASNQGSGVPDRFSGSGSGTDFTLTISSLQAEDVAVYYCQQTKEVPYTFGGGTKVEIKR
B2: molPH5201: antibody having the VH and VL of SEQ ID NOS: 8 and 9 and murine constant domains, Fc substituted to eliminate mouse Fcγ receptor binding (antibody, V domains shown)
VH: B1 VH
VL: DIVMTQSPDSLAVSLGERATINCRASESVDNFGVSFMYWFQQKPGQPPKLLIYGASNQGSGVPDRFSGSGSGTDFTLTISSLQAEDVAVYYCQQTKEVPYTFGGGTKVEIK
modifications: murine constant domains, Fc-silenced

Key:
[1] = biological target: T1, human CD39, membrane-bound, as …; assay: indirect response PD model (inhibition on Kin) fitted to free mCD39 on monocytes of treated patients; flow cytometry, free CD39 detected with a labelled antibody having the VH and VL of IPH5201
Text: PK/PD modelling and simulation were used to guide selection of doses. IPH5201 PK data from 45 patients and PD data of free membrane CD39 (mCD39) occupancy on monocytes from 43 patients were available. A population PK model was developed with IPH5201 PK best described as a 2-compartment model with parallel linear and saturatable kinetics.
An indirect response PD model (inhibition on Kᵢₙ) was then built to describe the relationship between IPH5201 concentrations and free mCD39 on monocytes (FIG. 10). The model accurately predicted CD39free+ of monocytes (%). […] The final indirect response model was then used for parametric simulation.
To assess free CD39 on monocytes and B cells, blood samples are spiked with an antibody having the VH and VL of IPH5201 and a mouse Fc domain and labelled with a fluorochrome. A second non-competing anti-CD39 monoclonal antibody labelled with a distinct fluorochrome is used to bind to a site on CD39 distinct from the capture antibody. CD14, CD19 and CD45 are detected by incubation with anti-CD14, CD19 and CD45 monoclonal antibodies each labelled with a distinct fluorochrome. Binding is detected by flow cytometry.

MC38 cancer cell line = assay: MC38 tumor growth in huCD39KI mice (gemcitabine +/- anti-PD-L1 +/- molPH5201); type: in vivo, human CD39 knock-in (huCD39KI) mice
Description: In vivo experiments were performed in human CD39 knock-in (huCD39KI) mice, genetically modified to express human CD39 in place of its murine counterpart mouse CD39. These mice were sub-cutaneously (s.c.) engrafted with the MC38 cancer cell line. Mice bearing established tumors were dosed with isotype control (IC) antibodies, anti-human CD39 antibody (molPH5201, described above), gemcitabine chemotherapy and anti-mouse PD-L1 antibody (an antibody that binds murine PD-L1 having an Fc domain with amino acid substitutions to eliminate binding to mouse Fcγ receptors.
Male and female huCD39KI mice were engrafted subcutaneously (s.c.) with 1×10^6 MC38 cancer cells. Treatments were initiated after mouse randomization. Mice were treated twice a week for two weeks with gemcitabine (25 mg/kg) or PBS (at day 8, 11, 15 and 18 after cell engraftment) and once a week for four weeks with either anti-human CD39 antibody (molPH5201) or the corresponding isotype control (IC) antibody (400 μg/mouse).
Randomization of mice into four groups was performed on day 7 post tumor cell engraftment, at a mean tumor volume of 72 mm^3±27 mm^3 with individual tumor volumes comprised between 37 and 130 mm^3.
(§1) Male and female huCD39KI mice were engrafted s.c. with 1×10^6 MC38. Treatments were initiated after mouse randomization. Mice were treated twice a week for two weeks with gemcitabine (25 mg/kg) or PBS, twice a week for three weeks with either anti-mouse PD-L1 antibody or the corresponding IC antibody (200 μg/mouse) and once a week for four or five weeks depending on the experiment with either anti-human CD39 antibody (molPH5201) or the corresponding IC antibody (400 μg/mouse). Mouse randomization into five groups was performed on day 7 post tumor cell engraftment at a mean tumor volume of 62 mm^3±23 mm^3 with individual tumor volumes comprised between 31 and 117 mm^3.
as §1, with “As in Experiment 1, male” for “Male”, “64” for “62”, “115” for “117”
as §1, with “As in Experiments 1 and 2, male” for “Male”, “engraftment,” for “engraftment”, “74 mm^3±21” for “62 mm^3±23”, “40” for “31”, “121” for “117”
The three experiments were pooled and results are shown in FIG. 9, showing Tumor growth of MC38 tumor in huCD39KI mice post treatment with gemcitabine+/−anti-PD-L1+/−molPH5201. MC38 tumor-bearing huCD39KI mice were randomized on day 7 and then treated as indicated with 25 mg/kg ip of gemcitabine or PBS, 200 μg ip of anti-mouse PD-L1 antibody or corresponding isotype control antibody and with 400 μg iv of molPH5201 or corresponding IC antibody. Graphs show tumor growth in each individual (n=31/group). CR: Complete Response.

[2] = test system: adenosine in MCA205 tumors; assay: Intratumoral adenosine in MCA205 tumors in huCD39KI mice (LC-MS/MS); type: in vivo, human CD39 knock-in (huCD39KI) mice; settings: molPH5201 20 mg/kg on day 7 and 14; tumors harvested day 16; vs isotype control; FIG. 4
Description: Expression of human CD39 in MCA205 tumors engrafted in human CD39 knock-in (huCD39KI) mice was assessed, followed by measure of intratumoral levels of adenosine after in vivo treatment with molPH5201, an antibody having the VH and VL or SEQ ID NO NOS: 8 and 9 and murine constant domains including an Fc domain with amino acid substitutions to eliminate binding to mouse Fcγ receptors, in order to evaluate the reduction of adenosine levels in tumors by molPH5201 can reduce in vivo.
(§2) Human CD39 expression on MCA205 tumors harvested on day 16 post engraftment was evaluated by IHC with EPR20627 clone from Abcam B&C. MCA205 tumors were engrafted in huCD39KI mice. On day 7 and 14 post tumor implantation, they were treated with molPH5201 (20 mg/kg) or isotype control. On day 16, tumors were harvested. Results are shown in FIG. 4, left hand panel, showing that a significant percentage of cells express CD39.
Quantification of adenosine in the harvested MCA205 tumors was performed using pre-column derivatization and liquid chromatography-mass spectrometry (LC-MS/MS) as described by Goodwin et al. 2019 Anal Biochem 568:78-88.

CD39 enzymatic activity = biological target: T2, CD39 enzymatic activity; assay: Wachstein-Meisel CD39 enzyme assay on tissues of treated mice; type: in vivo, huCD39KI mice; settings: tissues from molPH5201-treated animals; brown color indicates enzyme activity
Description: as §2
Blockade of CD39 enzymatic activity was determined using the Wachstein-Meisel CD39 enzyme assay (brown color indicates enzyme activity).

| Molecule | IC50 [1] [µg/mL] | number of complete response when combined with gemcitabine, in comparison to gemcitabine alone (MC38 cancer cell line; Experiment 1 (FIG. 6)) | improvement of anti-tumor effect over the comparator named in the value (MC38 cancer cell line; Experiment 1 (FIG. 6), triple vs gemcitabine alone p<0.05 when control group was excluded) | improvement of anti-tumor efficacy over the comparator named in the value (MC38 cancer cell line; Experiment 2 (FIG. 7), difference marginally significant, p<0.1, control group excluded) | number of complete response (CR) on combination (MC38 cancer cell line; Experiment 3 (FIG. 8)) | improvement of anti-tumor effect over the comparator named in the value (MC38 cancer cell line; Experiment 3 (FIG. 8), triple vs gemcitabine alone marginally significant p<0.1, control group excluded) | improvement of the anti-tumor efficacy of gemcitabine (MC38 cancer cell line; gemcitabine +/- molPH5201 experiment (FIG. 5)) | tumor growth compared to the control group (MC38 cancer cell line; gemcitabine +/- molPH5201 experiment (FIG. 5), gemcitabine 25 mg/kg, molPH5201 400 μg/mouse, p<0.001 where significant) | improvement of anti-tumor efficacy over the comparator named in the value (MC38 cancer cell line; pooled analysis of three experiments (FIG. 9), n=31/group, p<0.05 where improved, linear-mixed effect model) | intratumoral adenosine compared to control [2] | CD39 enzymatic activity in tissues (CD39 enzymatic activity) |
| --- | --- | --- | --- | --- | --- | --- | --- | --- | --- | --- | --- |
| B1 | 2.44 | – | – | – | – | – | – | – | – | – | – |
| B2 | – | increased the number of complete response | Neither anti-PD-L1 nor molPH5201 improved the anti-tumor effect of gemcitabine; also recorded: did not statistically significantly improve gemcitabine+anti-PD-L1 efficacy | tended to improve the anti-tumor efficacy of the combination gemcitabine+anti-PD-L1 | did not increase the number of CR | Neither anti-PD-L1 nor molPH5201 improved the anti-tumor effect of gemcitabine; also recorded: did not statistically significantly improve gemcitabine+anti-PD-L1 efficacy | did not improve the anti-tumor efficacy of gemcitabine | did not modify tumor growth | neither anti-PD-L1 nor molPH5201 improved the anti-tumor effect of gemcitabine; also recorded: improved the anti-tumor efficacy of the gemcitabine+anti-PD-L1 combination | less intratumoral adenosine | decreased CD39 enzymatic activity |

Source: US20260191954A1, “COMPOSITIONS AND METHODS FOR NEOADJUVANT TREATMENT IN CANCER” (INNATE PHARMA, priority 2022, published 2026)
